Results published in PMC11272045.

Biological target: recombinant his-tag subtilisin-like protease-1 (SspA-1) (Streptococcus suis serotype 2 strain 05ZYH33)
Experiment: MST

“recombinant glutathione S-transferase (GST)-tagged human TLR2 (from UniProt O60603 21-784) (receptor)” was tested, and the Kd was 24.3 nM.
